Results: paper PMC3005623 (Journal of molecular biology, 2010)
Each block holds one binder with its values, some of them ahead of it.

Tests used:
[1] = target: the molecule itself; assay: electron microscopy of lipid monolayers
[2] = target: T1, Cdc12 (S. cerevisiae, UniProt P32468 1-407); assay: negative-stain electron microscopy
T1 sequence (looked up): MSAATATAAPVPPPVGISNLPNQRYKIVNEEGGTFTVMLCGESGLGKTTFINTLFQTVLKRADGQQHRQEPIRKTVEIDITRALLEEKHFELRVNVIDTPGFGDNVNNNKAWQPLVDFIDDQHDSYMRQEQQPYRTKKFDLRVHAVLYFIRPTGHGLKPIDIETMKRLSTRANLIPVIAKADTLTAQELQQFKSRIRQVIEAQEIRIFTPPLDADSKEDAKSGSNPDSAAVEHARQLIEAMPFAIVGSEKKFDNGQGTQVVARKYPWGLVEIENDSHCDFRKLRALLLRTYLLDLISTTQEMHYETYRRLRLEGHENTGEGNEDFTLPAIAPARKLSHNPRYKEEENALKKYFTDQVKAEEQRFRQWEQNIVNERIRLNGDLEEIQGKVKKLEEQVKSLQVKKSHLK

B1: Cdc3(G261V) (natural protein, S. cerevisiae, UniProt P32457 1-520, looked up)
chain: MSLKEEQVSIKQDPEQEERQHDQFNDVQIKQESQDHDGVDSQYTNGTQNDDSERFEAAESDVKVEPGLGMGITSSQSEKGQVLPDQPEIKFIRRQINGYVGFANLPKQWHRRSIKNGFSFNLLCVGPDGIGKTTLMKTLFNNDDIEANLVKDYEEELANDQEEEEGQGEGHENQSQEQRHKVKIKSYESVIEENGVKLNLNVIDTEGFGDFLNNDQKSWDPIIKEIDSRFDQYLDAENKINRHSINDKRIHACLYFIEPTVHYLKPLDLKFMQSVYEKCNLIPVIAKSDILTDEEILSFKKTIMNQLIQSNIELFKPPIYSNDDAENSHLSERLFSSLPYAVIGSNDIVENYSGNQVRGRSYPWGVIEVDNDNHSDFNLLKNLLIKQFMEELKERTSKILYENYRSSKLAKLGIKQDNSVFKEFDPISKQQEEKTLHEAKLAKLEIEMKTVFQQKVSEKEKKLQKSETELFARHKEMKEKLTKQLKALEDKKKQLELSINSASPNVNHSPVPTKKKGFLR
- binding result [1]: binds

- percent of particles that are heptamers [2]: 5.4%
B2: Cdc11(Δ2–18) (natural protein, S. cerevisiae, UniProt P32458 1-415, looked up)
chain: MRGITFTVMIVGQSGSGRSTFINTLCGQQVVDTSTTILLPTDTSTEIDLQLREETVELEDDEGVKIQLNIIDTPGFGDSLDNSPSFEIISDYIRHQYDEILLEESRVRRNPRFKDGRVHCCLYLINPTGHGLKEIDVEFIRQLGSLVNIIPVISKSDSLTRDELKLNKKLIMEDIDRWNLPIYNFPFDEDEISDEDYETNMYLRTLLPFAIIGSNEVYEMGGDVGTIRGRKYPWGILDVEDSSISDFVILRNALLISHLHDLKNYTHEILYERYRTEALSGESVAAESIRPNLTKLNGSSSSSTTTRRNTNPFKQSNNINNDVLNPASDMHGQSTGENNETYMTREEQIRLEEERLKAFEERVQQELLLKRQELLQREKELREIEARLEKEAKIKQEE
